Results as given in PMC5821389, “Fluorescent single-stranded DNA-binding protein from Plasmodium falciparum as a biosensor for single-stranded DNA”.

How the values were obtained:
[1] = target: T1, DCC-PfSSB (wild-type PfSSB labeled with IDCC) (Plasmodium falciparum, UniProt Q8I415 77-284); experiment: fluorescence titration; high salt, 250 nM protein; two dT35 per tetramer; kon 109 uM-1s-1; High salt buffer (composition not in material) or low salt buffer (20 mM NaCl); pH and temperature not in material; settings: protein: recombinant; tags: DCC (diethylaminocoumarin) at C93; chain copies: 4; single strand; two copies per tetramer at saturation
[2] = target: T2, PfSSB wild type, unlabeled (Plasmodium falciparum, UniProt Q8I415 77-284); experiment: competition; high salt, equimolar labeled and unlabeled PfSSB; High salt buffer (composition not in material) or low salt buffer (20 mM NaCl); pH and temperature not in material; settings: protein: recombinant; chain copies: 4; single strand
[3] = target: T2, PfSSB wild type, unlabeled; experiment: competition; calculated from DCC-PfSSB Kd and 25-fold ratio; high salt; High salt buffer (composition not in material) or low salt buffer (20 mM NaCl); pH and temperature not in material; settings: protein: recombinant; chain copies: 4; single strand
[4] = target: T1, DCC-PfSSB (wild-type PfSSB labeled with …); experiment: stopped-flow kinetics (koff 0.014 s-1 / kon 199 uM-1s-1); low salt, 20 mM NaCl; koff by wtSSB displacement; High salt buffer (composition not in material) or low salt buffer (20 mM NaCl); pH and temperature not in material; settings: protein: recombinant; tags: DCC (diethylaminocoumarin) at C93; chain copies: 4; single strand
[5] = target: PfSSB C93A W166C, 5-IATR labeled (Plasmodium falciparum, UniProt Q8I415 77-284, C93A;W166C); experiment: fluorescence change; high salt; High salt buffer (composition not in material) or low salt buffer (20 mM NaCl); pH and temperature not in material; settings: protein: recombinant; tags: tetramethylrhodamine (5-IATR) at C166; chain copies: 4; single strand
[6] = target: PfSSB Y156R, IDCC labeled (Plasmodium falciparum, UniProt Q8I415 77-284, Y156R); experiment: as above; settings: protein: recombinant; tags: DCC at C93; chain copies: 4; single strand
[7] = target: PfSSB wild type, 5-IATR labeled (Plasmodium falciparum, UniProt Q8I415 77-284); experiment: as above; settings: protein: recombinant; tags: tetramethylrhodamine (5-IATR) at C93; chain copies: 4; single strand
[8] = target: T1, DCC-PfSSB (wild-type PfSSB labeled with …); experiment: as above; settings: protein: recombinant; tags: DCC (diethylaminocoumarin) at C93; chain copies: 4; single strand
[9] = target: PfSSB C93A G103C, 6-IATR labeled (Plasmodium falciparum, UniProt Q8I415 77-284, C93A;G103C); experiment: as above; settings: protein: recombinant; tags: tetramethylrhodamine (6-IATR) at C103; chain copies: 4; single strand
[10] = target: PfSSB C93A G103C, IDCC labeled (Plasmodium falciparum, UniProt Q8I415 77-284, C93A;G103C); experiment: as above; settings: protein: recombinant; tags: DCC at C103; chain copies: 4; single strand
[11] = target: PfSSB C93A G102C, IDCC labeled (Plasmodium falciparum, UniProt Q8I415 77-284, C93A;G102C); experiment: as above; settings: protein: recombinant; tags: DCC at C102; chain copies: 4; single strand
[12] = target: T1, DCC-PfSSB (wild-type PfSSB labeled with …); experiment: fluorescence titration; high salt, 125 pM DCC-PfSSB; single titration; High salt buffer (composition not in material) or low salt buffer (20 mM NaCl); pH and temperature not in material; settings: protein: recombinant; tags: DCC (diethylaminocoumarin) at C93; chain copies: 4; single strand
[13] = target: T1, DCC-PfSSB (wild-type PfSSB labeled with …); experiment: stopped-flow kinetics (koff/kon); high salt (salt inferred); High salt buffer (composition not in material) or low salt buffer (20 mM NaCl); pH and temperature not in material; settings: protein: recombinant; tags: DCC (diethylaminocoumarin) at C93; chain copies: 4; single strand

B1: dT35 (ssDNA)
DNA: TTTTTTTTTTTTTTTTTTTTTTTTTTTTTTTTTTT
binding result [1]: binds

B2: dT70 (ssDNA)
DNA: TTTTTTTTTTTTTTTTTTTTTTTTTTTTTTTTTTTTTTTTTTTTTTTTTTTTTTTTTTTTTTTTTTTTTT
binding signal [2]: > 25 fold tighter than DCC-PfSSB
Kd [3]: < 0.2 pM
Kd [4]: 70 pM
binding signal [5]: 12.8 ± 0.5 fluorescence ratio +/- dT70
binding signal [6]: 12.3 ± 0.07 fluorescence ratio +/- dT70
binding signal [7]: 9.1 ± 0.2 fluorescence ratio +/- dT70
binding signal [8]: 20.1 ± 0.1 fluorescence ratio +/- dT70
binding signal [9]: 3.5 ± 0.4 fluorescence ratio +/- dT70
binding signal [10]: 3.5 ± 0.08 fluorescence ratio +/- dT70
binding signal [11]: 1.8 ± 0.09 fluorescence ratio +/- dT70
Kd [12]: 1.2 ± 0.5 pM
Kd [13]: < 4.6 pM
